We go through 20 molecules from KR20160003317A (dated 2016).

This assay deals with T1, 송아지 혈청 알부민(BSA) (bovine (printed: 송아지 혈청 알부민), UniProt P02769 25-607).
T1 construct: also called bovine serum albumin
The assay is described as follows: phage ELISA, 1% BSA coated, anti-M13-peroxidase, absorbance 492 nm. In general terms: An ELISA detects its analyte on a solid surface through an enzyme-linked reagent.

T1 sequence (P02769 25-607 limits assumed): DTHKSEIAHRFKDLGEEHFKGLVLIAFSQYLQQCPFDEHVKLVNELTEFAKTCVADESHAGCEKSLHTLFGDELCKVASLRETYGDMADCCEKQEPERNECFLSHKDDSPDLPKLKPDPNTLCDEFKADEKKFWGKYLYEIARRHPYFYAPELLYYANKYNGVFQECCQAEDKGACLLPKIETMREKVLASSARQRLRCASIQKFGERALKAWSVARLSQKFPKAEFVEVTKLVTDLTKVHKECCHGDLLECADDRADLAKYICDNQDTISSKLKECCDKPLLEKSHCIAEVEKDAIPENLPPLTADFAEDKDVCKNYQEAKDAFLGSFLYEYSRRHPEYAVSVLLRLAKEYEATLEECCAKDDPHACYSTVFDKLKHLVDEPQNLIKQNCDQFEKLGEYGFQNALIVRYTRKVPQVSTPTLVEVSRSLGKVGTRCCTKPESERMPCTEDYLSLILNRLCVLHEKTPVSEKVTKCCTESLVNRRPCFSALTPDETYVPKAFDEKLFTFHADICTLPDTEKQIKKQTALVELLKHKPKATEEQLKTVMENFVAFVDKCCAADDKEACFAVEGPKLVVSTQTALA

B1: SC05-157 (scFv)
scFv: EVQLVESGAEVKKPGESLKISCKGSGYSFTNYWIGWVRQMPGKGLEWMGIVYPGDSDTRYSPSFQGQVTISADKSISTAYLQWSSLKASDTAVYYCARRMAVAGSDAFDIWGQGTMVTVSSGTGGSGGTGSGTGGSTQAVLTQPSSASGTPGQTVTISCSGSTSNIGSHNVNWYQHLPGTAPKLLIYINNKRPSGVPDRFSGSKSGSSASLAISGLQSEDEADYYCAAWDDSLRRPVFGGGTQLTVL
notes: single-chain phage antibody: the scFv stood on phage in the ELISA
As to B1, the binding result was “no binding”.

B2: SC06-241 (scFv)
scFv: EVQLVESGGGLVQPGRSLRLSCAASGFTFRSYAMYWVRQAPGKGLEWLALISHDASKMFYADSVKGRFTISRDNSKNTLSLQMNSLTIEDTAVYYCVRERTGYYGAYWGQGTLVTVSSGTGGSGGTGSGTGGSTDIQMTQSPSSLSASVGDRVTLTCRASQGIGTWLAWYQQKPGKAPKLLIYSASSLQSGVPSRFSGSGSGTDFTLSISNLQPEDFATYYCQQANSFPITFGQGTRLEIK
notes: as for B1
Regarding B2, the binding result is “no binding”.

B3: SC06-242 (scFv)
scFv: EVQLVESGPGLVKPSETLSLTCTVSGGSISSYYWSWIRQPPGKGLEWIGYIYYTGTTNYNPSLNSRVTISADTSKNQFSLKLSSVTAADTAVYYCARGGQTAGVWGKGTTVTVSSGTGGSGGTGSGTGGSTQSVLTQPPSVSVAPGQTARITCGGYNIGRKSVHWYQQKPGLAPVLVVYDNSDRPSGIPARFSGSNSGNTATLTISGTQAMDEADYYCQAWDRGTAVFGTGTKVTVL
notes: as for B1
As for B3, the binding result is “no binding”.

B4: SC06-079 (scFv)
scFv: EVQLVESGGGLVQPGGSLRLSCAASGFTFSSYAMSWVRQAPGKGLEWVSAISGTGGSAYYADSVKGRFTISRDNSKNTVYLQMNSLRAEDTAVYYCAKGHSSGTNWGQGTLVTVSSGTGGSGGTGSGTGGSTSYVLTQPPSASGTPGQRVTISCSGSSSNIGSNFVYWYQQLPGTAPKLLIYRNNQRPSGVPDRFSGSKSGTSASLAISGLRSEDEADYYCAAWDDSLSGVLFGGGTQLTVL
notes: as for B1
Take B4: the binding result is reported as “no binding”.

B5: SC06-402 (scFv)
scFv: QVQLVQSGAEVKKPGESLKISCKGSGYSFTSYWIGWVRQMPGKGLEWMGIIYPGDSDTRYSPSFQGQVTISADKSISTAYLQWSSLKASDTAMYYCARWGGVCSSTSCPNRDAFDIWGQGTMVTVSSGTGGSGGTGSGTGGSTQSALTQPRSVSGSPGQSVTISCTGTSSDVGGYNYVSWYQQHPGKAPKLMIYDVSNRPSGVSNRFSGSKSGNTASLTISGLQAEDEAEFHCSSYRSSGASPVVFGGGTKLTVL
notes: as for B1
For B5, the binding result is given as “no binding”.

B6: SC06-388 (scFv)
scFv: EVQLVETGAEVKKPGESLRISCKGSGYSFTSYWIAWVRQMPGKGLEWMGVIYPGDSDARYSPSFQGQVTMSVDKSISTAYLQWSSLKASDTAMYYCAKLRSKNTGLDYWGQGTLVTVSSGTGGSGGTGSGTGGSTQSALTQPPSASGSPGQSVTISCTGTSSDVGGYNFVSWYQQHPGKAPKLMIYEVSNRPSGVPDRFSGSKSGNTASLTVSGLQAEDEADYYCSSYAGNNNLAFGGGTQLTVL
notes: as for B1
For the molecule B6, the binding result is “no binding”.

B7: SC05-159 (scFv)
scFv: QVQLVQSGAEVKKPGATVKISCKVSGYTFTDYYMHWVQQAPGKGLEWMGLVDPEDGETIYAEKFQGRVTITADTSTDTAYMELSSLRSDDTAVYYCARAEVMTTINNWYFDLWGRGTLVTVSSGTGGSGGTGSGTGGSTSYVLTQPPSASGTPGQRVTISCSGSSSNIGSNNVSWYQQLPGTAPKLLIYSNNQRPSGVPDRFSGSKSGTSASLAISGLQSEDEADYYCAAWDDSLNGWVFGGGTKLTVL
notes: as for B1
B7: the binding result was “no binding”.

B8: SC06-246 (scFv)
scFv: EVQLVESGGGLIQPGGSLRLSCAASGFTVSSDFMTWVRQAPGRGLEWVSLIYSGGKTNYADSVKGRFTISRDNSRNTLYLQMNSLRAEDTAVYYCARSVCSTISCSKLDDWGQGTLVTVSSGTGGSGGTGSGTGGSTQAVLTQPSSVSVAPGQTARITCGGNNIGRKSVHWYQQKPGLAPVLVVNDNSDRPSGIPARFSGSNSGNTATLTISRVEAGDEADYYCHVWGSSRDHYVFGTGTKVTVL
notes: as for B1
On to B8, for which the binding result is on record as “no binding”.

B9: SC06-389 (scFv)
scFv: QVQLVQSGAEVKKPGESLKISCKGSGYSFSTYWIGWVRQMPGKGLEWMGIIYPGDSDTRYSPSFQGQVTISADKSISTAHLQWSSLKASDTAMYYCARPGPRGYNHGFDYWGQGTLVTVSSGTGGSGGTGSGTGGSTSSELTQDPAESVALGQTVKITCQGDSLRRYYASWYQQKPGQAPVLVIYGKNNRPSGIPDRFSGSRSGNTASLTITGAQAEDEAVYYCNSRDSSGNSVVFGGGTKLTVL
notes: as for B1
Turning to B9, the binding result was “no binding”.

B10: SC06-252 (scFv)
scFv: EVQLVETGGGLVQPGGSLRLSCAASGLTFSSYAMSWVRQAPGKGLEWVSALSGSTTFYADSVKGRFTISRDNAKNTLYLQMNSLRAEDTAVYYCARGNYYGMDVWGQGTTVTVSSGTGGSGGTGSGTGGSTSYVLTQPPSASGTPGQRVTISCSGSSSNIGKFYVYWYQQFPGAAPKLLIYSNNQRPSGVPDRFSGSKSGTSASLAISGLQSEDEADYYCAAWDGSLNGYVFGTGTKVTVL
notes: as for B1
Take B10: the binding result is given as “no binding”.

B11: SC06-071 (scFv)
scFv: EVQLVESGGGVVQPGRSLRLSCAASGFTFSSYGMHWVRQAPGKGLEWVAMIWSDGSNKYYADSVKGRFTISRDNSKNTLYLQMNSLRVEDTAVYYCASNYGSGSYWGGFDYWGQGTLVTVSSGTGGSGGTGSGTGGSTQSALTQPASVSGSPGQSITISCTGTSSDVGGYNLVSWYQQHPGKAPKLMIYEGSKRPSGVSNRFFGSKSGDTASLTISGLQAEDEADYYCSSYTTSSTHVFGTGTKVTVL
notes: as for B1
For the molecule B11, the binding result is reported as “no binding”.

B12: SC06-089 (scFv)
scFv: EVQLVETGGGLVQPGGSLRLSCAASGFTFSSYSMNWVRQAPGKGLEWVSFISSSSSTIYYADSVKGRFTIARDNAKNSLYLQMNSLRDEDTAVYYCARPVGTGISLFHAFDIWGQGTMVTVSSGTGGSGGTGSGTGGSTQSVLTQPPSVSVAPGQTARITCGGNNIGSKYVHWYQQKPGQAPVLVVYDDSDRPSGIPERFSGSNSGNTATLTISRVEAGDEADFYCQVWDGSSDPVVFGGGTKLTVL
notes: as for B1
For the molecule B12, the binding result is given as “no binding”.

B13: SC06-077 (scFv)
scFv: QVQLVQSGAEVKKPGSSVKVSCKASGGTFSSYAISWVRQAPGQGLEWMGGIIPIFGTANYAQKFQGRVTITADESTSTAYMELSSLRSEDTAVYYCAREGGVGPAFDIWGQGTMVTVSSGTGGSGGTGSGTGGSTDIQMTQSPDSLAVSLGERATINCKSSQSVLHNSNNKNYLAWYQQKPGQPPKLLIYWASTRESGVPDRFSGSGSGTDFTLTISSLQAEDVAVYYCQQYYGSPYTFGQGTKLEIK
notes: as for B1
Consider B13, for which the binding result is “no binding”.

B14: SC06-198 (scFv)
scFv: QLQLQESGPGLVKPSETLSLTCAVSGYSITSGYYWGWVRQPPGKGLEWIGSIYHTGSTYYNPSLKSRVTISVDTSKNQFSLKLNSLTAADTAVYFCASQSPAFDFWGQGTMVTVSSGTGGSGGTGSGTGGSTQSVLTQPPSVSGAPGQRVTISCTGSSSNIGTGYDVHWYQQLPGTAPKLLIYGNNNRPSGVPDRFSGSKSGTSASLAITGLQAEDEADYYCATWDDSLNGWVFGGGTKLTVP
notes: as for B1
On to B14, for which the binding result is “no binding”.

B15: SC06-078 (scFv)
scFv: EVQLVESGAEVKKPGSSVKVSCKASGGTFSSYAISWVRQAPGQGLEWMGGIIPIFGTANYAQKFQGKVTITADESTSTAYMELSSLRSEDTAVYYCARLSPRYYGMDVWGQGTTVTVSSGTGGSGGTGSGTGGSTQSALTQPRSVSGSPGQSVTISCTGTSSDVGGYNYVSWYQQHPGKAPKLMIYGGSERPSGVSNRFSGSKSGNTASLTISGVQAEDEADYYCSSYTSSGTLLFGGGTQLTVL
notes: as for B1
Consider B15, for which the binding result is “no binding”.

B16: SC06-092 (scFv)
scFv: EVQLVESGGGLVQPGRSLRLSCTGSGFTFGDYAMSWFRQAPGKGLEWVGFIRNKAYGGTAEYAASVKDRFIISRDDSKSIAYLQMNSLKTEDTAVYYCVRREYDTGWLDYWGQGTLVTVSSGTGGSGGTGSGTGGSTQSALTQPPSASGSPGQSVTISCTGTSSDVGGYNYVSWYQRHPGKAPKLMIYDVTDRPSGVSNRFSGSKSGNTASLTISGLQAEDEADYYCSSYTSSSTSAVFGGGTKLTVL
notes: as for B1
Take B16: the binding result is recorded as “no binding”.

B17: SC06-415 (scFv)
scFv: EVQLVESGGGLVQPGRSLRLSCAASGFTFDDYAMHWVRQAPGKGLEWVSGISWNSGSIGYADSVKGRFTISRDNAKNSLYLQMNSLRAEDSAVYYCARGGQRFDFWGQGTLVTVSSGTGGSGGTGSGTGGSTQSALTQPPSASGSPGQSVTISCTGTSSDVGGYNYVSWYQQLPGKAPKLLIYDVNNRPSGVSNRFSGSKSGNTASLTISGLQAEDEAEYYCGSSVGSRLRIFGGGTKLTVL
notes: as for B1
Consider B17, for which the binding result is listed as “no binding”.

B18: SC06-087 (scFv)
scFv: EVQLVESGGGLVKPGGSLRLSCAASGFTFSSNSMNWVRQAPGKGLEWVSFISSSSTYIYYADSVKGRFTISRDNAKNSLYLQMNSLRAEDTAVYYCARESAAGISYDAFDIWGQGTMVTVSSGTGGSGGTGSGTGGSTQSALTQPASVSGSPGQSITISCTGTSSDVGGYKYVSWYQQHPGKAPKLMIYEVSNRPSGVSNRFSGSKSGSTASLTISGLQAEDEADYYCSSYTSSSTLGVFGTGTKVTVL
notes: as for B1
On to B18, for which the binding result was “no binding”.

B19: SC06-191 (scFv)
scFv: EVQLVESGGGVVQPGRSLRLSCVASEFTFSNYGMHWVRQAPGKGLEWVAVIWYDGSNEDYADSVKGRFTISRDNSKNTVYLHMNSLRAEDTAVYFCTRGQYSSTWFLDYWGQGTLVTVSSGTGGSGGTGSGTGGSTDIQLTQSPSTLSASVGDRVTITCRASQSISSWLAWYQQKPGKAPKLLIYKASSLETGVPSRFSGSGSGTDFTLTISSLQPEDFATYYCQQANSFPLTFGGGTKVDIK
notes: as for B1
As to B19, the binding result is “no binding”.

B20: SC06-409 (scFv)
scFv: EVQLVQSGAEVKKPGESLKISCKGSGYSFTNYWIGWVRQMPGKGLEWMGIIYPGDSDTRYSPSFQGQVTISADKSISTAYLQWSSLKASDTAMYYCARHTQNKNGMNTFDIWGQGTMVTVSSGTGGSGGTGSGTGGSTQSALTQPPSASGSPGQSVTISCTGTSSDIGGYNYVSWYQQHPGKAPKLMIYEVSNRPPGVSNRFSGSKSGNTASLTISGLQAEDEADYYCSSYSTTTTRVIFGGGTKLTVL
notes: as for B1
Regarding B20, the binding result was “no binding”.
